Measurements from publication PMC6632053 (2019).
Bridge positions count the residues as written; N and C are the ends. Square brackets hold non-standard residues; d marks the D form. Primed or numbered codes have the meaning given here. R8 = C=CCCCCCC[C@@](C)(N)C(=O)O; S5 = C=CCCC[C@](C)(N)C(=O)O; Cba′ = not defined here

Experiments:
human Mdm2 (1–125) = human Mdm2 (1–125) (human); experiment: ITC
[1] = molecular target: site-specific mono-biotinylated Mdm2 (human, biotin (site-specific, mono, by sortase-mediated ligation; site not stated)); experiment: SPR
site-specific mono-biotinylated Mdm2 (human, biotin (site-specific, mono, by sortase-mediated ligation; site not stated)), sequence (chain, as listed by the source): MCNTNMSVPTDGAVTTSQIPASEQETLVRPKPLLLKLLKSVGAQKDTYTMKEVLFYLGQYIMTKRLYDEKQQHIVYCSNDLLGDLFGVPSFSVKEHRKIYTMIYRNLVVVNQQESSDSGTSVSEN

human Mdm2 (1–125) (human), sequence (chain, as listed by the source): as above

B1: MP-292 (peptide)
chain: Ac-LTF[R8]EYWQL[Cba′][S5]SAA-NH2
modifications: staple 4-11; reading uncertain
Kd (human Mdm2 (1–125)): < 20 nM | Kd [1]: 1.4 nM
